Test [1] deals with FXa-processed LOXL2, endogenous in human aortic smooth muscle cells treated with FXa (human (endogenous in HASMC)) (UniProt Q9Y4K0). Put plainly: proximity ligation; Duolink In Situ Red mouse/rabbit kit on HASMC on coverslips, fixed but not permeabilised; cells untreated, with FXa, or with FXa + rivaroxaban for 24 h; signal as mean gray value, % of average of controls.
The target of test [2] is Lysyl oxidase-like 2 (LOXL2), full-length, endogenous in human aortic smooth muscle cells (human (endogenous in HASMC)) (UniProt Q9Y4K0). The test is described as above.

For “Type IV collagen, endogenous in the matrix of human aortic smooth muscle cells (complex)”, the decrease of PLA signal with FXa against controls in test [1] was 50 % (decrease). For the same substance, the increase of PLA signal with rivaroxaban (full-length LOXL2 accumulated) in test [2] is 80 % (increase).
